Experimental data from patent US20170152308A1 (Biogen, published 2017).
Where two headings read alike, the source gives them in different places.

T1: His-huTDP-43 domain II (amino acid residues 99-204) (human)
T1 construct: Amino terminal His-tagged fragment, E. coli
T1 chain: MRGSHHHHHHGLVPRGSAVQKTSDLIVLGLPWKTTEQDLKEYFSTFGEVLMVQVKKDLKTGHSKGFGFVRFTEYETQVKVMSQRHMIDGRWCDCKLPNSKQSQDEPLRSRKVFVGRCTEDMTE

T2: His-huTDP-43 domain I (amino acid residues 2-106) (human)
T2 construct: Amino terminal His-tagged fragment, E. coli; also called N-terminal domain
T2 chain: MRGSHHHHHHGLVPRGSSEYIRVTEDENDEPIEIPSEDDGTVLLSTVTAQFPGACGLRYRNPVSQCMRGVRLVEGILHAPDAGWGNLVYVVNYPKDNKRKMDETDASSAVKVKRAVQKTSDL

T3: His-huTDP-43 domain III (amino acid residues 183-273) (human)
T3 construct: Amino terminal His-tagged fragment, E. coli
T3 chain: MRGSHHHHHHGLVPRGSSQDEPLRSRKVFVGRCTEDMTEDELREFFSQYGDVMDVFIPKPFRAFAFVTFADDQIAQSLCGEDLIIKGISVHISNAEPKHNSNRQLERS

B1: NI-205.21G1 (antibody, human IgG1, V domains shown)
VH: QVQLVESGGGVVQPGMSLRLSCAASGFSFSSHGMHWVRQTPGKGLEWLAVISYDASNKSYADSVKGRFTISRDNSKKTLYLQMDSLRVEDTALYYCANAFSSSASGGYWGQGTLVTVSS
VL: DVVMTQSPLSLPVTLGQPASISCRSSQSLVHSDGVTYLNWFQQRPGQSPRRLIYKVSNRDSGVPDRFSGSGSGTDFTLEISRVEAEDVGIYYCMQGTHWPPWTFGQGTKVEIK
notes: Human-derived; also called NI-21G1
B2: NI-205.51C1 (antibody, human IgG1, V domains shown)
VH: EVQLVESGGGLVQPGGSLRISCTTSGFIFSDYWMHWVRQAPGKGLTWVSRINLDGSDTIYADSVKGRFTISRDNDKNTLYLQMNSLRVEDTAIYYCARSRKSVWGQGTMVTVSS
VL: QSALTQPASVSGSPGQSITISCTGSNTDVGAYDYVSWSQQLPGKAPKFVIFDVDVRPSGISDRFSGSKSGNTASLTISGLQAEDEADYYCSSYTKSGTLVFGGGTKVTVV
notes: Human-derived
B3: NI-205.3F10 (antibody, human IgG1, V domains shown)
VH: EVQLLESGGDLVQPGGSLRLSCAASGFTFSSQAMSWVRQAPGKGLEWVSALSRTGDYTWYADSVRGRFTVSRDDSKNIFYLEMNSLRAEDTAVYYCAKNYYSSFGYNWAAFHIWGQGTMVTVSS
VL: EIVLTQSPGTLSLSPGERATLSCRASQDVNNNYLAWYQQKPGQAPRLLIYGASRRATGVPDRFSGRGSGTDFTLTINRLEPEDFAMYFCQQYGGSPPYTFGQGTKLEIK
notes: Human-derived
B4: NI-205.44B2 (antibody, human IgG1, V domains shown)
VH: QVQLQESGPGVVKPSQTLSLTCTVSGVSVGSGDYYWSWIRHHPGKGLEWIGYISFFGSSNYNPSLKGRVSMSVDTSNNQFSLNLKSVTAADTAVYFCATGNAYSFWGQGTMVTVSS
VL: QSALTQPASVSGSPGQSITISCTGTSSDIGTHNLVSWYQQHPGKAPKLIIYEIFERPSGISSRFTGSKSGNTASLTISGLQAEDEADYFCCAYSVTVIFGGGTKLTVL
notes: Human-derived; also called NI205.44B22
B5: NI-205.21G2 (antibody, human IgG1, V domains shown)
VH: QVQLVQSGAEVKKPGASVKVSCKTSGYSFTSYTLHWVRQAPGHRPEWMGWINAAFINTKYSQKFQGRITLTRDTSANIAYLELRSLTTEDTAVYYCARRASGSNGLDVWGQGTTVTVSS
VL: DIQMTQSPSSLSASVGDRITITCQASRDITNYLNWYQQKPGKAPKLLIYDASYLETGVPSTFSGSGSGTHFTLTISSLQPDDFATYYCQQYDSVPLTFGGGTKVEIK
notes: Human-derived

How the values were obtained:
[1] = target: T1, His-huTDP-43 domain II (amino acid …); experiment: Western blot, 300 ng recombinant protein per lane, primary antibody 10 nM
Method: (§1) Non-specific binding sites were blocked for 1 hr. at room temperature with PBST containing 2% BSA (Sigma, Buchs, Switzerland). Blots were incubated overnight with primary antibodies (10 nM) followed by either a donkey anti-human IgGγ-specific secondary antibody conjugated with HRP (Jackson ImmunoResearch, USA) or a goat-anti mouse IgG (H+L)-specific secondary antibody conjugated with HRP (Jackson ImmunoResearch, USA). Blots were developed using ECL and ImageQuant 350 detection (GE Healthcare, Otelfingen, Switzerland).

[2] = target: T2, His-huTDP-43 domain I (amino acid …); experiment: as above
Method: as §1

[3] = target: T3, His-huTDP-43 domain III (amino acid …); experiment: as above
Method: as §1

[4] = target: T4, recombinant full-length His-tagged human TDP-43 (2-414) (human, UniProt Q13148 2-414); experiment: direct ELISA, coated antigen
T4 construct: Amino terminal His tag, made in E. coli, purified in 8 M urea; also called full length TDP-43; full-length TDP-43
Method: (§2) The half maximal effective concentration (EC₅₀) of the human-derived TDP-43-specific antibodies for human TDP-43 and their target target-specificity was determined substantially as described in Example 2 above. Briefly, 96 well microplates (Corning) were coated with recombinant full length TDP-43 (Biogen Idec, USA), Escherichia coli extract and BSA (Sigma, Buchs, Switzerland), diluted to a concentration of 5 μg/ml in carbonate ELISA coating buffer (pH 9.6) overnight at 4° C. […] Non-specific binding sites were blocked for 1 hr. at room temperature with PBS containing 2% BSA (Sigma, Buchs, Switzerland). Human TDP-43-specific antibodies were diluted to the indicated concentrations and incubated 1 hr. at room temperature. Binding was determined using a donkey anti-human IgGγ-specific secondary antibody conjugated with HRP (Jackson ImmunoResearch, USA), followed by measurement of HRP activity in a standard colorimetric assay. EC₅₀ values were estimated by a non-linear regression using GraphPad Prism software (San Diego, USA).

[5] = target: T4, recombinant full-length His-tagged …; experiment: direct ELISA, coated antigen; remark: listed apart in the source
Method: as §2

BSA = target: T5, BSA (bovine, UniProt P02769); experiment: direct ELISA, BSA coated at 5 ug/ml as control, OD 450
T5 construct: control coating in the EC50 ELISA; also called bovine serum albumin (Sigma, Buchs, Switzerland)
Method: as §2, with “To determine the” for “The”, “to evaluate target-specificity,” for “their target target-specificity was determined substantially as described in Example 2 above. Briefly,”
The half maximal effective concentration (EC₅₀) of the human-derived TDP-43-specific antibodies for human TDP-43 and their target target-specificity was determined substantially as described in Example 2 above. […]

[6] = target: T6, 6xHis-SUMO-TDP-43 (1-414), properly folded full length (human, UniProt Q13148 1-414); experiment: capture ELISA, antigen held by anti-6xHis antibody
T6 construct: Purified with KSCN and arginine, monomeric; captured on the plate by an anti-6xHis antibody; also called folded full-length TDP-43; 6xHis/SUMO tagged full length TDP-43; not shown: N-terminal 6xHis and SUMO tags from a modified pET19-b vector
Method: (§3) Non-specific binding sites were blocked for 1 hr at RT with PBS containing 1% BSA (Sigma) and 0.05% Tween-20 (Fisher Scientific). 6×His-SUMO-TDP43 proteins at a concentration of 1.7 μM were allowed to bind to antibody-coated plates for 1 hr at RT in PBS buffer containing 1% BSA, 300 mM arginine and 0.1% PEG 5000, pH 7.5. Plates were incubated for 1 hr at RT with human antibodies of present invention, titrated in a three-fold dilution series, followed by HRP conjugated anti-human IgG Fc γ (Jackson ImmunoResearch) in PBST containing 1% BSA. HRP activity was measured in a standard colorimetric assay. EC₅₀ values were calculated using a four-parameter logistic curve fit on Softmax pro software (Molecular Devices).
(§4) We measured the binding affinity of the human-derived TDP-43 specific antibodies provided herein to properly folded 6×His/SUMO tagged TDP-43 using a capture ELISA in which native TDP-43 was immobilized without direct adsorption on the surface of the ELISA plate. This was achieved by immobilizing an anti 6×His antibody which then captured native TDP-43. […] After this immobilization step, binding by human antibodies was tested in regular buffers without interference of TDP-43 aggregation.

[7] = target: T7, 6xHis-SUMO-TDP-43 (220-414) (human, UniProt Q13148 220-414); experiment: capture ELISA, antigen held by anti-6xHis antibody
T7 construct: Captured on the plate by an anti-6xHis antibody; also called 6xHis/SUMO tagged truncated TDP-43; not shown: N-terminal 6xHis and SUMO tags from a modified pET19-b vector
Method: as §3, §4

[8] = target: T3, His-huTDP-43 domain III (amino acid …); experiment: Western blot
Method: as §1
(§5) Commercially available TDP-43 specific antibody TARDBP (M01), clone 2E2-D3 (Abnova, Taiwan) was used as positive control for human TDP-43 detection whereas, an anti-human IgG Fcγ-specific antibody was used as a negative control. Binding of the human-derived antibodies to specific TDP-43 domains was determined by Western Blot analysis.

[9] = target: T8, His-huTDP-43 domain IV (amino acid residues 258-414) (human, UniProt Q13148 258-414); experiment: direct ELISA, His-tagged TDP-43 fragments coated at 6.6 ug/ml, OD 450
T8 construct: Amino terminal His-tagged fragment, E. coli, solubilized in 8 M urea; also called Glycine-rich domain
Method: (§6) Non-specific binding sites were blocked for 1 hr. at room temperature with PBST containing 2% BSA (Sigma, Buchs, Switzerland). Antibodies were incubated 1 hr. at room temperature. Binding was determined using either a donkey anti-human IgGγ-specific antibody conjugated with HRP (Jackson ImmunoResearch, USA) or a goat-anti mouse IgG (H+L)-specific secondary antibody conjugated with HRP (Jackson ImmunoResearch, USA)., followed by measurement of HRP activity in a standard colorimetric assay.

[10] = target: T1, His-huTDP-43 domain II (amino acid …); experiment: as above
Method: as §6

[11] = target: T2, His-huTDP-43 domain I (amino acid …); experiment: as above
Method: as §6

[12] = target: T1, His-huTDP-43 domain II (amino acid …); experiment: direct ELISA, TDP-43 fragments coated at 6.6 ug/ml, OD 450
Method: as §6

[13] = target: T2, His-huTDP-43 domain I (amino acid …); experiment: as above
Method: as §6

[14] = target: T3, His-huTDP-43 domain III (amino acid …); experiment: as above
Method: as §6

[15] = target: T1, His-huTDP-43 domain II (amino acid …); experiment: Western blot
Method: as §1, §5

[16] = target: T3, His-huTDP-43 domain III (amino acid …); experiment: direct ELISA, His-tagged TDP-43 fragments coated at 6.6 ug/ml, OD 450
Method: as §6

T8 sequence (Q13148 other isoform, or with tags, fused parts or gaps limits assumed): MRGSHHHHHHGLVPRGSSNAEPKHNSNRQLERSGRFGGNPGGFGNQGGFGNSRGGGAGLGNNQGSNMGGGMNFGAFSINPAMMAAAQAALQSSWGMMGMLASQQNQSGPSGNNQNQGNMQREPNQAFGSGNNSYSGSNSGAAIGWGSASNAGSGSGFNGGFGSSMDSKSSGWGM
T6 sequence (Q13148 whole entry): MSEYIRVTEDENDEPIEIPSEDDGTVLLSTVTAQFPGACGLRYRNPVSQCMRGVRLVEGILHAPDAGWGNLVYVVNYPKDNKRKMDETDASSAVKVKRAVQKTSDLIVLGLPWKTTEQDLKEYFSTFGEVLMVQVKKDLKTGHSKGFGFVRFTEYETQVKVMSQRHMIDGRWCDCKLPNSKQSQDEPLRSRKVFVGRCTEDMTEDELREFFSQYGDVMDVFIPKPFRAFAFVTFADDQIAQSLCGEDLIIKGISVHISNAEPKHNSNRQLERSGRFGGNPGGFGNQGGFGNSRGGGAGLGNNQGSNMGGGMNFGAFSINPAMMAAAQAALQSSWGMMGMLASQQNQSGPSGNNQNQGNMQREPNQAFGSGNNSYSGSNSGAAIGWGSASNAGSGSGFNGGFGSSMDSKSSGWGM
T7 sequence (Q13148 220-414): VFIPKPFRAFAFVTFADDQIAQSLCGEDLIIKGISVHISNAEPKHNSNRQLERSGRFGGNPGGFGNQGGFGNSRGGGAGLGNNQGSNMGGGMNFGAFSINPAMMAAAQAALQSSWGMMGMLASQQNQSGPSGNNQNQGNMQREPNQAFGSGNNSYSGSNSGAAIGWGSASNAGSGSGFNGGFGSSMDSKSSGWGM
T5 sequence (P02769 25-607 limits assumed): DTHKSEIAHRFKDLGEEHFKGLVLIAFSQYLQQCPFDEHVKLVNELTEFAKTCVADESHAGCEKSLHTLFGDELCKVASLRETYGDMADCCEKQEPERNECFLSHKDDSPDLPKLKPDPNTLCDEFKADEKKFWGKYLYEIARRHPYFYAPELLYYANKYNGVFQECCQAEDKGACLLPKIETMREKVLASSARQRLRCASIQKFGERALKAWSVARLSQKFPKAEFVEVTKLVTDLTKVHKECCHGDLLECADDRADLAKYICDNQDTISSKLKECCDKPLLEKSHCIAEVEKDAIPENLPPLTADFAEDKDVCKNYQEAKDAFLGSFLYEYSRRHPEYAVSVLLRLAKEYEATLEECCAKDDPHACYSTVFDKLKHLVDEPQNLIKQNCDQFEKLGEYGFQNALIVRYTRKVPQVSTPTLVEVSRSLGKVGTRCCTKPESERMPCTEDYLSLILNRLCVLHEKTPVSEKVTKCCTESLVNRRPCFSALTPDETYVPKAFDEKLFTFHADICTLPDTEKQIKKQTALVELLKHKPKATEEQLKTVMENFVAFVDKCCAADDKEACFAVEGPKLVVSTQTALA

Binder	binding result [1]	binding result [2]	binding result [3]	EC50 [4]	EC50 [5]	binding result (BSA)	EC50 [6]	EC50 [7]	binding result [8]	binding result [9]	binding result [10]	binding result [11]	binding result [7]	binding result [12]	binding result [13]	binding result [14]	binding result [15]	binding result [16]
B1	no binding (tested: 10 nM)	no binding (tested: 10 nM)	no binding (tested: 10 nM)	4.1 nM	4.1 nM	no binding (tested: about 4x10^5 pM)	4.4 nM	0.33 nM										
B2				0.18 nM	0.18 nM		1.1 nM		binds	no binding	no binding	no binding	no binding					
B3				1.4 to 2.8 nM	1.4 nM		> 90 nM		binds	no binding	no binding	no binding	no binding					
B4					2.8 nM		> 125 nM	33.5 nM						no binding	no binding	no binding		
B5				0.24 nM	0.24 nM		3.6 nM			no binding		no binding	no binding				binds	no binding
